Source: patent publication US7897371B2, “Activation of mutated RAC-PK” (Novartis AG, priority 1995, dated 2011)
Where “and” joins values, the source holds several entries; their conditions need not be identical. Equal values may be shown once. Read-outs that look alike come from different tables or passages of the source. No end group written: not given here.

Assays:
RAC-PKα [1] = type: cell-based, human
p70 S6 kinase = biological target: T1, p70 S6 kinase (Rattus norvegicus, UniProt P67999); settings: cited from earlier work; for Km: read-out: Km for phosphorylation by p70 S6 kinase
T1 construct: from tissue; host or cells: rat liver
T1 sequence (P67999 24-525): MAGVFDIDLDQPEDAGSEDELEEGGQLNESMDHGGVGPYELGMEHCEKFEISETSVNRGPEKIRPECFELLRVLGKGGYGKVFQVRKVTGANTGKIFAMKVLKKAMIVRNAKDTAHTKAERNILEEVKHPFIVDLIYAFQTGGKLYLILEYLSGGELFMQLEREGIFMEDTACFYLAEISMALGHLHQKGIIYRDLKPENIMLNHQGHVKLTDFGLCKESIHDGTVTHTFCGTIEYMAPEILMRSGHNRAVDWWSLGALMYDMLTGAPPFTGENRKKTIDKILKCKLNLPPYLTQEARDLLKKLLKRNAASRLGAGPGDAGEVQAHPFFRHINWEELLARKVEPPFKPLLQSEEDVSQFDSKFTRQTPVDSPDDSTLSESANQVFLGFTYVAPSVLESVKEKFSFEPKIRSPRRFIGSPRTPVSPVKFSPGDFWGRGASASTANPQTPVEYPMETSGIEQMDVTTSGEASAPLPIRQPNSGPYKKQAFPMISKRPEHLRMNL

RAC-PK = RAC-PK activity immunoprecipitated from Swiss 3T3 cells (MBP substrate); type: cell-based; settings: for Increase in RAC-PK activity: Swiss 3T3 cells, 1 μM okadaic acid, 0.1 mM vanadate, insulin or 10% FCS
RAC-PKα [2] = biological target: RAC-PKα (Homo sapiens, UniProt P31749)
RAC-PKα (Homo sapiens, UniProt P31749), sequence (P31749 whole entry): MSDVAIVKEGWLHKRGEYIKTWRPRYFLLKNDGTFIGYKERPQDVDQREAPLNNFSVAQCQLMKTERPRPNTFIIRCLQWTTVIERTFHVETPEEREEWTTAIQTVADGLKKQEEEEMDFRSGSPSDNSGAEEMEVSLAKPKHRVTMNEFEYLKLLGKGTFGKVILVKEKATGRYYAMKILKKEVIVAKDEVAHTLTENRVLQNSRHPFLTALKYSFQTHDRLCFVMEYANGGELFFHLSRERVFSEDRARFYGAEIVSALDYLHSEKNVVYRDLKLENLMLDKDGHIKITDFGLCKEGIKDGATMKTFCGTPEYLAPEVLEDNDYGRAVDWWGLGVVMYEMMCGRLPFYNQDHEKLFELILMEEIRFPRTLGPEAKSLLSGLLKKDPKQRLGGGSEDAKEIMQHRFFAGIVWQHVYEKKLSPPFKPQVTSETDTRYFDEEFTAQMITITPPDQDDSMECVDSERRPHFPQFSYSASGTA

MAPKAP kinase-1 = settings: cited from earlier work
GSK3β = type: cell-based, human
GSK3β, sequence (P49841 whole entry): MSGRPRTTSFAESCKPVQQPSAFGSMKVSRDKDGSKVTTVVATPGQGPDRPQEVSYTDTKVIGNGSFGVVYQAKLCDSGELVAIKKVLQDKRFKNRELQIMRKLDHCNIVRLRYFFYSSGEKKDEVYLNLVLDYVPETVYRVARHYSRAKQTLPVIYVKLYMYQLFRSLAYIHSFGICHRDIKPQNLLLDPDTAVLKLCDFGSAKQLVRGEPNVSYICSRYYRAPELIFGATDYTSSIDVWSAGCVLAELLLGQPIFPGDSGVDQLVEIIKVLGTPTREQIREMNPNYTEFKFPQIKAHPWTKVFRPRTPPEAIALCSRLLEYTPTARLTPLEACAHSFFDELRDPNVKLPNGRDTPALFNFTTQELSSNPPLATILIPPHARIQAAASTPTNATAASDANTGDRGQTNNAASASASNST

[3] = system: N=C(N)NCCC[C@H](NC(=O)[C@@H]1CCCN1C(=O)[C@@H](N)CCCNC(=N)N)C(=O)NCC(=O)N[C@@H](CO)C(=O)N[C@@H](CO)C(=O)N[C@@H](Cc1ccccc1)C(=O)O; assay: purified protein, by the assay type; settings: other: phosphorylation by RAC-PKα; pH 7.5; 30.0 °C
[4] = system: C[C@H](NC(=O)[C@H](CO)NC(=O)[C@H](CO)NC(=O)[C@@H](NC(=O)[C@H](CCCNC(=N)N)NC(=O)[C@@H]1CCCN1C(=O)[C@@H](N)CCCNC(=N)N)[C@@H](C)O)C(=O)O; assay: purified protein, by the assay type; settings: other: phosphorylation by RAC-PKα; pH 7.5; 30.0 °C
[5] = system: CC(C)[C@H](NC(=O)[C@@H](NC(=O)[C@H](CCCNC(=N)N)NC(=O)[C@@H]1CCCN1C(=O)[C@@H](N)CCCNC(=N)N)[C@@H](C)O)C(=O)N[C@@H](CO)C(=O)N[C@@H](Cc1ccccc1)C(=O)O; assay: purified protein, by the assay type; settings: other: phosphorylation by RAC-PKα; pH 7.5; 30.0 °C
[6] = system: C[C@H](NC(=O)[C@H](C)NC(=O)[C@H](CCCNC(=N)N)NC(=O)[C@@H]1CCCN1C(=O)[C@@H](N)CCCNC(=N)N)C(=O)N[C@H](C(=O)N[C@@H](Cc1ccccc1)C(=O)O)[C@@H](C)O; assay: purified protein, by the assay type; settings: pH 7.5; 30.0 °C
[7] = system: C[C@H](NC(=O)[C@H](Cc1ccccc1)NC(=O)[C@H](CO)NC(=O)[C@H](CO)NC(=O)[C@@H](NC(=O)[C@H](CCCNC(=N)N)NC(=O)[C@@H]1CCCN1C(=O)[C@@H](N)CCCNC(=N)N)[C@@H](C)O)C(=O)O; assay: purified protein, by the assay type; settings: other: phosphorylation by RAC-PKα; pH 7.5; 30.0 °C
[8] = system: CC(C)[C@H](NC(=O)[C@H](CCCNC(=N)N)NC(=O)[C@@H]1CCCN1C(=O)[C@@H](N)CCCNC(=N)N)C(=O)N[C@@H](CO)C(=O)N[C@@H](CO)C(=O)N[C@@H](Cc1ccccc1)C(=O)O; assay: purified protein, by the assay type; settings: other: phosphorylation by RAC-PKα; pH 7.5; 30.0 °C
[9] = system: C[C@H](NC(=O)[C@H](CCCNC(=N)N)NC(=O)[C@@H]1CCCN1C(=O)[C@@H](N)CCCNC(=N)N)C(=O)NCC(=O)N[C@@H](CO)C(=O)N[C@@H](Cc1ccccc1)C(=O)O; assay: purified protein, by the assay type; settings: other: phosphorylation by RAC-PKα; pH 7.5; 30.0 °C
[10] = system: C[C@@H](O)[C@H](NC(=O)[C@H](CCCNC(=N)N)NC(=O)[C@@H]1CCCN1C(=O)[C@@H](N)CCCNC(=N)N)C(=O)N[C@@H](CC(N)=O)C(=O)N[C@@H](CO)C(=O)N[C@@H](Cc1ccccc1)C(=O)O; assay: purified protein, by the assay type; settings: other: phosphorylation by RAC-PKα; pH 7.5; 30.0 °C
[11] = system: C[C@@H](O)[C@H](NC(=O)[C@H](CCCNC(=N)N)NC(=O)[C@@H]1CCCN1C(=O)[C@@H](N)CCCNC(=N)N)C(=O)N[C@@H](CO)C(=O)N[C@@H](CO)C(=O)N[C@@H](CCCCN)C(=O)O; assay: purified protein, by the assay type; settings: other: phosphorylation by RAC-PKα; pH 7.5; 30.0 °C
[12] = system: CC(C)[C@H](NC(=O)[C@H](CO)NC(=O)[C@H](CO)NC(=O)[C@@H](NC(=O)[C@H](CCCNC(=N)N)NC(=O)[C@@H]1CCCN1C(=O)[C@@H](N)CCCNC(=N)N)[C@@H](C)O)C(=O)O; assay: purified protein, by the assay type; settings: other: phosphorylation by RAC-PKα; pH 7.5; 30.0 °C
[13] = system: C[C@H](NC(=O)[C@H](C)NC(=O)[C@H](CCCNC(=N)N)NC(=O)[C@@H]1CCCN1C(=O)[C@@H](N)CCCNC(=N)N)C(=O)N[C@@H](CO)C(=O)N[C@@H](Cc1ccccc1)C(=O)O; assay: purified protein, by the assay type; settings: other: phosphorylation by RAC-PKα; pH 7.5; 30.0 °C
[14] = system: C[C@H](NC(=O)[C@H](Cc1ccccc1)NC(=O)[C@H](CO)NC(=O)[C@H](CO)NC(=O)[C@@H](NC(=O)[C@H](CCCNC(=N)N)NC(=O)[C@H](C)NC(=O)[C@H](CCCNC(=N)N)NC(=O)CN)[C@@H](C)O)C(=O)O; assay: purified protein, by the assay type; settings: other: phosphorylation by RAC-PKα; pH 7.5; 30.0 °C
[15] = system: C[C@H](NC(=O)CNC(=O)[C@H](CCCNC(=N)N)NC(=O)[C@@H]1CCCN1C(=O)[C@@H](N)CCCNC(=N)N)C(=O)N[C@@H](CO)C(=O)N[C@@H](Cc1ccccc1)C(=O)O; assay: purified protein, by the assay type; settings: other: phosphorylation by RAC-PKα; pH 7.5; 30.0 °C
[16] = system: C[C@@H](O)[C@H](NC(=O)[C@H](CCCNC(=N)N)NC(=O)[C@@H]1CCCN1C(=O)[C@H](CCCNC(=N)N)NC(=O)CN)C(=O)N[C@@H](CO)C(=O)N[C@@H](CO)C(=O)N[C@@H](Cc1ccccc1)C(=O)O; assay: purified protein, by the assay type; settings: other: phosphorylation by RAC-PKα; pH 7.5; 30.0 °C
[17] = system: CC(C)C[C@H](NC(=O)[C@H](CO)NC(=O)[C@H](CO)NC(=O)[C@@H](NC(=O)[C@H](CCCNC(=N)N)NC(=O)[C@@H]1CCCN1C(=O)[C@@H](N)CCCNC(=N)N)[C@@H](C)O)C(=O)O; assay: purified protein, by the assay type; settings: other: phosphorylation by RAC-PKα; pH 7.5; 30.0 °C
[18] = system: C[C@@H](O)[C@H](NC(=O)[C@H](CCCNC(=N)N)NC(=O)[C@@H]1CCCN1C(=O)[C@@H](N)CCCNC(=N)N)C(=O)NCC(=O)N[C@@H](CO)C(=O)N[C@@H](Cc1ccccc1)C(=O)O; assay: purified protein, by the assay type; settings: other: phosphorylation by RAC-PKα; pH 7.5; 30.0 °C
GSK3 = type: cell-based
RAC-PKα [19] = system: RAC-PKα
[20] = values marked *: data reported previously

## IGF-1
RAC-PKα [1]
  Activation of transfected RAC-PKα: 46 fold and 38 fold
  Half time for activation of transfected RAC-PKα: 1 min

## KKRNRTLSVA
p70 S6 kinase
  Km: 1.5 µM

## [O]=[V]([O-])([O-])[O-] [vanadate]
RAC-PK
  Increase in RAC-PK activity: 11 fold

## RPKTSSF [RPKTSSF]
RAC-PKα [2]; phosphorylation by RAC-PKα
  Km: > 500 µM

## GRPRTSSFAEG
RAC-PKα [2]; phosphorylation by RAC-PKα
  Km: 4 µM

## KPRTSSF [KPRTSSF]
RAC-PKα [2]; phosphorylation by RAC-PKα
  Km: > 500 µM

## RPRTSSF [RPRTSSF]
RAC-PKα [2]; phosphorylation by RAC-PKα
  Km: 5 µM

## RPRNSSF [RPRNSSF]
RAC-PKα [2]; phosphorylation by RAC-PKα
  Km: > 500 µM

## RPRTSSE [RPRTSSE]
RAC-PKα [2]; phosphorylation by RAC-PKα
  Km: > 500 µM

## RFRGGSF
RAC-PKα [2]
  Km: 105 µM
  V (0.1 mM): 55
  Vmax (U/mg): 345 U/mg

## RPRTSS [RPRTSS]
RAC-PKα [2]; phosphorylation by RAC-PKα
  Km: > 500 µM

## KKRNKTLSVA
p70 S6 kinase
  Km: 34 µM
p70 S6 kinase; [20]
  p70 S6 kinase Vmax (U/mg): 760* U/mg
MAPKAP kinase-1; read-out: Km for phosphorylation by MAPKAP-K1
  Km: 17 µM
MAPKAP kinase-1; [20]
  MAPKAP kinase-1 Vmax (U/mg): 840* U/mg
RAC-PKα [2]
  Phosphorylation by RAC-PKα: does not phosphorylate

## HA-KD-RAC-PKα: kinase dead mutant, Lys179 changed to Ala
GSK3β
  Increase in GSK3 activity on PP2A treatment: ~12%

## RPRTSTF [RPRTSTF]
RAC-PKα [2]; phosphorylation by RAC-PKα
  Km: 30 µM

## RPRASSF
RAC-PKα [2]
  Km: 12 µM
  V (0.1 mM): 89
  Vmax (U/mg): 230 U/mg

## C=C1[C@@H](O)[C@@H]2O[C@]3(CC[C@H](/C=C/[C@@H](C)[C@@H]4CC(C)=C[C@@]5(O[C@H](C[C@@](C)(O)C(=O)O)CC[C@H]5O)O4)O3)CC[C@H]2O[C@@H]1[C@@H](O)C[C@H](C)[C@H]1O[C@@]2(CCCCO2)CC[C@H]1C [okadaic acid]
RAC-PK; Swiss 3T3, simultaneous 1 μM okadaic acid and 10% serum
  Activation of RAC-PK: 5 fold
RAC-PK
  Increase in RAC-PK activity: 3 fold

## RAC-PKα (Homo sapiens)
[3]
  Km: 60 µM
  Vmax: 163 U/mg
[4]
  Km: 250 µM
  Vmax: 265 U/mg
[5]
  Km: 30 µM
  Vmax: 365 U/mg
[6]
  Km: 25 µM
  Vmax: 230 U/mg
[7]
  Km: 8 µM
  Vmax: 305 U/mg
[8]
  Km: 25 µM
  Vmax: 273 U/mg
[9]
  Km: 49 µM
  Vmax: 114 U/mg
[10]
  Km: 30 µM
  Vmax: 300 U/mg
[11]
  Km: 80 µM
  Vmax: 308 U/mg
[12]
  Km: 21 µM
  Vmax: 300 U/mg
[13]
  Km: 25 µM
  Vmax: 215 U/mg
[14]
  Km: 10 µM
  Vmax: 230 U/mg
[15]
  Km: 105 µM
  Vmax: 160 U/mg
[16]
  Km: 8 µM
  Vmax: 385 U/mg
[17]
  Km: 8 µM
  Vmax: 278 U/mg
[18]
  Km: 25 µM
  Vmax: 233 U/mg

## RPRTASF
RAC-PKα [2]
  Km: 20 µM
  V (0.1 mM): 83
  Vmax (U/mg): 213 U/mg

## insulin: insulin from Novo-Nordisk
RAC-PKα [1]
  Activation of transfected RAC-PKα: 20 fold
  Half time for activation of transfected RAC-PKα: 1 min
GSK3
  Increase in 32P-labelling of GSK3-α and GSK3-β: 60-100%
  Inhibition of GSK3: 40-50%
RAC-PK
  Increase in RAC-PK activity: 4.5 fold
RAC-PKα [19]
  Half-time (t0.5) of activation of RAC-PK: 1 min

B1: MBP: myelin basic protein, kinase assay substrate (protein, UniProt P02687 1-169, looked up)
Myelin basic protein: AAQKRPSQRSKYLASASTMDHARHGFLPRHRDTGILDSLGRFFGSDRGAPKRGSGKDGHHAARTTHYGSLPQKAQGHRPQDENPVVHFFKNIVTPRTPPPSQGKGRGLSLSRFSWGAEGQKPGFGYGGRASDYKSAHKGLKGHDAQGTLSKIFKLGGRDSRSGSPMARR
RAC-PKα [2]
  Km: 5 µM
  Vmax (U/mg): 25 U/mg
